Test [1] has as its target T1, human Claudin 3 (human, UniProt O15551 1-220).
T1 construct: whole, on cells; also called CLDN3
T1 sequence (looked up): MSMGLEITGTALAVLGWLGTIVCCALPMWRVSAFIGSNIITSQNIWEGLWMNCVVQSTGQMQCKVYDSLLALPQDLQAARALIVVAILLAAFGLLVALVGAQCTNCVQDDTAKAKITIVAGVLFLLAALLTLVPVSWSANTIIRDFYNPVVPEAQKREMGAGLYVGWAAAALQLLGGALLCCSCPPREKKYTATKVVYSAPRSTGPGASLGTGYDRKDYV
Put plainly: flow cytometry, CHOK1/H_CLDN3 cells. As to the method:
(§1) In this example, cell-based binding of hu Abs on human CLDN3 expressing cells were assessed using flow cytometry.
(§2) Briefly, the CHOK1/H_CLDN3 cells were incubated with hu-Abs (from 100 nM, 6 folds dilution, 8 points). After incubation at 4° C. for 60 minutes. Cells were pelleted and washed twice with 2% FBS/PBS buffer, and stained with fluorescent conjugated secondary antibody at 4° C. for 30 minutes. After that the cells were washed twice and resuspended in 80 μL of 2% FBS/PBS buffer. Fluorescent signal of binding was detected using Agilent. The EC50 was calculated using the GraphPad software.

For test [2], the target named is T2, human Claudin 9 (human, UniProt O95484 1-217).
T2 construct: whole, on cells; also called CLDN9; CLND9
T2 sequence (looked up): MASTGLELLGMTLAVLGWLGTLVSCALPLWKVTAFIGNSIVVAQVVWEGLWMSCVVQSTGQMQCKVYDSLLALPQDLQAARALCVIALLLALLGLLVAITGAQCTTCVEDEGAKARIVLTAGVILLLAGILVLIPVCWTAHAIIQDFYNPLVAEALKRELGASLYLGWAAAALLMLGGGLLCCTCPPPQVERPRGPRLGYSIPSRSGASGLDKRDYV
Put plainly: flow cytometry, HEK293/H_CLDN9 cells. As to the method:
In this example, cell-based binding of z5 toward human CLDN9 engineering expressing cells were assessed using flow cytometry.
Briefly, 2 cell lines were incubated with antibodies (from 100 nM, 6 folds dilution, 8 points) at 4° C. for 60 minutes. Cells were pelleted and washed twice with 2% FBS/PBS buffer, and stained with fluorescent conjugated secondary antibody at 4° C. for 30 minutes. After that the cells were washed twice and resuspended in 80 μL of 2% FBS/PBS buffer. Fluorescent signal of binding was detected using Agilent. The EC50 was calculated using the GraphPad software.

The target in test [3] is T1, human Claudin 3. Put plainly: flow cytometry, CHOK1/H_CLDN3 cells, Ab titrated from 100 nM. As to the method: as §1, §2
The target of test [4] is T3, human Claudin 6 (human, UniProt P56747 1-220).
T3 construct: whole, on cells; also called CLDN6
T3 sequence (looked up): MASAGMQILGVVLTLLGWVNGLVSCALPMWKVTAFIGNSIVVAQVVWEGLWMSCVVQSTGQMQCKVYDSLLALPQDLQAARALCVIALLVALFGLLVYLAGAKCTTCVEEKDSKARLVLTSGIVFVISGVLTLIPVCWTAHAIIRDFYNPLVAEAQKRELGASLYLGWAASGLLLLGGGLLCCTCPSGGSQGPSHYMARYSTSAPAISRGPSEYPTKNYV
Put plainly: flow cytometry, HEK293/H_CLDN6 cells, Ab titrated from 100 nM. As to the method: In this example, cell-based binding of humanized antibodies (hu Abs) on human CLDN6 expressing cells were assessed using flow cytometry.
Briefly, the HEK293/H_CLDN6 cells were incubated with hu-Abs (from 100 nM, 6 folds dilution, 8 points). After incubation at 4° C. for 60 minutes. Cells were pelleted and washed twice with 2% FBS/PBS buffer, and stained with fluorescent conjugated secondary antibody at 4° C. for 30 minutes. After that the cells were washed twice and resuspended in 80 μL of 2% FBS/PBS buffer. Fluorescent signal of binding was detected using Agilent. The EC50 was calculated using the GraphPad software.

Test [5] addresses T2, human Claudin 9. Put plainly: flow cytometry, HEK293/H_CLDN9 cells, Ab titrated from 100 nM. As to the method:
In this example, cell-based binding of hu Abs on human CLDN9 expressing cells were assessed using flow cytometry.
Briefly, the HEK293/H_CLDN9 cells were incubated with hu-Abs (from 100 nM, 6 folds dilution, 8 points). After incubation at 4° C. for 60 minutes. Cells were pelleted and washed twice with 2% FBS/PBS buffer, and stained with fluorescent conjugated secondary antibody at 4° C. for 30 minutes. After that the cells were washed twice and resuspended in 80 μL of 2% FBS/PBS buffer. Fluorescent signal of binding was detected using Agilent. The EC50 was calculated using the GraphPad software (LaJolla, CA).

The target in test [6] is T3, human Claudin 6. Put plainly: cell-based or functional assay.

B1: 97-C10E1-2-P1.z3 (antibody, V domains shown)
VH: QVQLVQSGAEVKKPGASVKVSCKASGYAFTGYTMNWVRQAPGQGLEWIGLSNPYNAGTIYNQKFKGRVTMTVDKSTSTVYMELSSLRSEDTAVYYCARNYYYGSSYAYYYAMDYWGQGTTVTVSS
VL: DAQMTQSPSSLSASVGDRVTITCRSSTGAVTTSNYANWVQQKPGKAPKLLIGGTNNRAPGVPSRFSGSGSGTDATLTISSLQPEDFATYYCALWYSNHWVFGGGTKVEIK
For the molecule B1, the binding result in the test with human Claudin 3 [1] and with human Claudin 9 [2] was “no binding (tested: 100 nM (highest concentration tested))” each time. Further, the “Top MFI” value with human Claudin 3 [3] is 133; with human Claudin 6 [4], 27400; in the test with human Claudin 9 [5] it was 594.

B2: z5-LM-D03 (antibody, V domains shown)
VH: QVQLVQSGAEVKKPGASVKVSCKASGYAFTGYTMNWVRQAPGQGLEWIGLSNPYNAGTIYNQKFKGRVTMTVDKSTSTVYMELSSLRSEDTAVYYCARNYYYGSSYAYYYAMDYWGQGTTVTVSS
VL: DIVVTQSPSSLSTSVGDRVTITCRSSTGAVTTSNYANWVQEKPGKAFKGLIGGTNNRAPGVPARFSGSLSGDDAALTISSAQPEDFATYFCALWYSNHWVFGGGTKVEIK
modifications: LM-D03 conjugated to the antibody (structure only as a drawing); residues and drug load not stated
As to B2, in the test with human Claudin 6 [6], the “Min cell viability, OV90 (CLDN6 low)” value was determined as 30.4%; the “Min cell viability, OVCAR-3 (CLDN6 mid)” value was determined as 20.3%; the “Min cell viability, PA-1 (CLDN6 high)” value was 12.1%.

B3: z5-DXD (antibody, V domains shown)
VH: QVQLVQSGAEVKKPGASVKVSCKASGYAFTGYTMNWVRQAPGQGLEWIGLSNPYNAGTIYNQKFKGRVTMTVDKSTSTVYMELSSLRSEDTAVYYCARNYYYGSSYAYYYAMDYWGQGTTVTVSS
VL: DIVVTQSPSSLSTSVGDRVTITCRSSTGAVTTSNYANWVQEKPGKAFKGLIGGTNNRAPGVPARFSGSLSGDDAALTISSAQPEDFATYFCALWYSNHWVFGGGTKVEIK
modifications: DXD conjugated to the antibody; residues and drug load not stated
On to B3, for which, in the test with human Claudin 6 [6], the “Min cell viability, OV90 (CLDN6 low)” value turned out to be 90.5%; the “Min cell viability, OVCAR-3 (CLDN6 mid)” value was determined as 24.5%; the “Min cell viability, PA-1 (CLDN6 high)” value was determined as 14.1%.

B4: z5-LM-D01 (antibody, V domains shown)
VH: QVQLVQSGAEVKKPGASVKVSCKASGYAFTGYTMNWVRQAPGQGLEWIGLSNPYNAGTIYNQKFKGRVTMTVDKSTSTVYMELSSLRSEDTAVYYCARNYYYGSSYAYYYAMDYWGQGTTVTVSS
VL: DIVVTQSPSSLSTSVGDRVTITCRSSTGAVTTSNYANWVQEKPGKAFKGLIGGTNNRAPGVPARFSGSLSGDDAALTISSAQPEDFATYFCALWYSNHWVFGGGTKVEIK
modifications: LM-D01 conjugated to the antibody (structure only as a drawing); residues and drug load not stated
As for B4, in the test with human Claudin 6 [6], the “Min cell viability, OV90 (CLDN6 low)” value was 87.9%; the “Min cell viability, OVCAR-3 (CLDN6 mid)” value stood at 0.2%; the “Min cell viability, PA-1 (CLDN6 high)” value was determined as 7.75%.

B5: 97-C10E1-2-P1.z13 (antibody, V domains shown)
VH: QVQLQQSGAEVKKPGASMKISCKASGYAFTGYTMNWVRQAPGQNLEWIGLSNPYNAGTIYNQKFKGRATLTVDKSTSTAYMELLSLRSEDTAVYYCARNYYYGSSYAYYYAMDYWGQGTTVTVSS
VL: DAQMTQSPSSLSASVGDRVTITCRSSTGAVTTSNYANWVQQKPGKAPKLLIGGTNNRAPGVPSRFSGSGSGTDATLTISSLQPEDFATYYCALWYSNHWVFGGGTKVEIK
For the molecule B5, the binding result with human Claudin 3 [1] and with human Claudin 9 [2] was “no binding (tested: 100 nM (highest concentration tested))” each time. Besides, the “Top MFI” value with human Claudin 3 [3] worked out at 131; in the test with human Claudin 6 [4], 15500; with human Claudin 9 [5], 315.

B6: 97-C10E1-2-P1.z5 (antibody, V domains shown)
VH: QVQLVQSGAEVKKPGASVKVSCKASGYAFTGYTMNWVRQAPGQGLEWIGLSNPYNAGTIYNQKFKGRVTMTVDKSTSTVYMELSSLRSEDTAVYYCARNYYYGSSYAYYYAMDYWGQGTTVTVSS
VL: DIVVTQSPSSLSTSVGDRVTITCRSSTGAVTTSNYANWVQEKPGKAFKGLIGGTNNRAPGVPARFSGSLSGDDAALTISSAQPEDFATYFCALWYSNHWVFGGGTKVEIK
notes: also called candidate antibody
On to B6, for which the binding result with human Claudin 3 [1] is “no binding (tested: 100 nM (highest concentration tested))”. Further, the “Top MFI” value in the test with human Claudin 3 [3] amounted to 254; with human Claudin 9 [5] it was 1560.

B7: 97-C10E1-2-P1.z8 (antibody, V domains shown)
VH: QVQLQQSGAEVKKPGASVKVSCKASGYAFTGYTMNWVRQAPGQNLEWIGLSNPYNAGTIYNQKFKGRVTLTVDKSTSTVYMELLSLRSEDTAVYYCARNYYYGSSYAYYYAMDYWGQGTTVTVSS
VL: DAQMTQSPSSLSASVGDRVTITCRSSTGAVTTSNYANWVQQKPGKAPKLLIGGTNNRAPGVPSRFSGSGSGTDATLTISSLQPEDFATYYCALWYSNHWVFGGGTKVEIK
Regarding B7, the binding result in the test with human Claudin 3 [1] and with human Claudin 9 [2] was “no binding (tested: 100 nM (highest concentration tested))” each time. The “Top MFI” value in the test with human Claudin 3 [3] worked out at 137; with human Claudin 6 [4] it was 16300; with human Claudin 9 [5], 542.

B8: 97-C10E1-2-P1.z10 (antibody, V domains shown)
VH: QVQLQQSGAEVKKPGASVKVSCKASGYAFTGYTMNWVRQAPGQNLEWIGLSNPYNAGTIYNQKFKGRVTLTVDKSTSTVYMELLSLRSEDTAVYYCARNYYYGSSYAYYYAMDYWGQGTTVTVSS
VL: DIVVTQSPSSLSTSVGDRVTITCRSSTGAVTTSNYANWVQEKPGKAFKGLIGGTNNRAPGVPARFSGSLSGDDAALTISSAQPEDFATYFCALWYSNHWVFGGGTKVEIK
On to B8, for which the binding result with human Claudin 3 [1] and with human Claudin 9 [2] was “no binding (tested: 100 nM (highest concentration tested))” throughout. Also, the “Top MFI” value with human Claudin 3 [3] was 160; with human Claudin 6 [4], 121000; with human Claudin 9 [5], 258.

B9: 97-C10E1-2-P1.z2 (antibody, V domains shown)
VH: QVQLVQSGAEVKKPGASVKVSCKASGYAFTGYTMNWVRQAPGQGLEWIGLSNPYNAGTIYNQKFKGRVTMTVDKSTSTVYMELSSLRSEDTAVYYCARNYYYGSSYAYYYAMDYWGQGTTVTVSS
VL: EAVVTQSPATLSVSPGERATLSCRSSTGAVTTSNYANWVQEKPGQAFRGLIGGTNNRAPGIPARFSGSLSGDEATLTISSLQSEDFAVYFCALWYSNHWVFGGGTKVEIK
With B9, the binding result in the test with human Claudin 3 [1] is listed as “no binding (tested: 100 nM (highest concentration tested))”. Further, the “Top MFI” value with human Claudin 3 [3] stood at 247; in the test with human Claudin 6 [4], 207000; in the test with human Claudin 9 [5], 2520.

B10: 97-C10E1-2-P1.z15 (antibody, V domains shown)
VH: QVQLQQSGAEVKKPGASMKISCKASGYAFTGYTMNWVRQAPGQNLEWIGLSNPYNAGTIYNQKFKGRATLTVDKSTSTAYMELLSLRSEDTAVYYCARNYYYGSSYAYYYAMDYWGQGTTVTVSS
VL: DIVVTQSPSSLSTSVGDRVTITCRSSTGAVTTSNYANWVQEKPGKAFKGLIGGTNNRAPGVPARFSGSLSGDDAALTISSAQPEDFATYFCALWYSNHWVFGGGTKVEIK
In the case of B10, the binding result with human Claudin 3 [1] and with human Claudin 9 [2] was “no binding (tested: 100 nM (highest concentration tested))” throughout. Besides, the “Top MFI” value with human Claudin 3 [3] came out at 138; with human Claudin 6 [4], 128000; with human Claudin 9 [5] it was 186.

The record behind these values is patent US20240317851A1 (LANOVA MEDICINES, published 2024).
